For assay [1], the target named is acetylcholine receptor. Nature of the assay: SPR, peptide at 10 µM on acetylcholine receptor. On the technique in general: SPR reads the build-up and loss of mass on a sensor chip optically.
The target in assay [2] is acetylcholine receptor. Nature of the assay: SPR, AchR immobilized on CM5 chip, peptide at 10 µM.

Regarding KRITK [5mer-89], the Binding affinity (RU) in the assay with acetylcholine receptor [1] came to 77 RU. Molecule RWICK [5mer-99] registered a Binding affinity (RU) in the assay with acetylcholine receptor [2] of 58 RU.

Molecule KGYLK [5mer-404] displayed a Binding affinity (RU) in the assay with acetylcholine receptor [2] of 83 RU. The same measure, in the same setting: with RVICK [5mer-118] the figure was 87 RU.

RVRLK [5mer-92] had a Binding affinity (RU) with acetylcholine receptor [1] of 62 RU. On the same count and under the same terms, with KSLRK [5mer-384] the figure was 75 RU.

RQQYR [5mer-101] returned a Binding affinity (RU) with acetylcholine receptor [2] of 55 RU. The same measure, in the same setting: next, RRFLR [5mer-410]: 76 RU. For KVFLR [5mer-415], in the assay with acetylcholine receptor [2], the Binding affinity (RU) turned out to be 77 RU.

With RRVQK [5mer-88], the Binding affinity (RU) in the assay with acetylcholine receptor [1] was 73 RU. Molecule RWLTR [5mer-413] displayed a Binding affinity (RU) in the assay with acetylcholine receptor [2] of 56 RU. The molecule RLRYR [5mer-402] displayed a Binding affinity (RU) in the assay with acetylcholine receptor [2] of 86 RU. On the same count and under the same terms, with KSVLK [5mer-111] the figure was 85 RU; with KRQRR [5mer-114], 82 RU; with KVIRK [5mer-100], 80 RU. In turn, KLFCK [5mer-388] displayed a Binding affinity (RU) with acetylcholine receptor [1] of 78 RU. Same read-out and setting: next, RSFLK [5mer-386]: 78 RU.

In the assay with acetylcholine receptor [2], RLQCR [5mer-109] registered a Binding affinity (RU) of 68 RU. With KRYYR [5mer-112], in the assay with acetylcholine receptor [2], the Binding affinity (RU) stood at 58 RU. In turn, KWRRR [5mer-389] yielded a Binding affinity (RU) in the assay with acetylcholine receptor [1] of 57 RU. Still for that read-out and setting: with KVFRR [5mer-391] the figure was 72 RU; with RGVYR [5mer-385], 51 RU.

KQIRK [5mer-119]: the Binding affinity (RU) with acetylcholine receptor [2] came to 60 RU. RWYTK [5mer-90] had a Binding affinity (RU) with acetylcholine receptor [1] of 86 RU. In the case of KSLQR [5mer-393], in the assay with acetylcholine receptor [1], the Binding affinity (RU) worked out at 75 RU.

Turning to KRRLK [5mer-110], in the assay with acetylcholine receptor [2], the Binding affinity (RU) was 76 RU. RVLYR [5mer-96] came in with a Binding affinity (RU) in the assay with acetylcholine receptor [1] of 55 RU. For the molecule RGVLR [5mer-401], the Binding affinity (RU) with acetylcholine receptor [2] was 52 RU. Consider RSRLR [5mer-392], for which the Binding affinity (RU) in the assay with acetylcholine receptor [1] was determined as 87 RU.

Molecule RVVLK [5mer-104] displayed a Binding affinity (RU) in the assay with acetylcholine receptor [2] of 74 RU. Turning to RWFQR [5mer-94], the Binding affinity (RU) with acetylcholine receptor [1] worked out at 50 RU.

In the assay with acetylcholine receptor [1], KWVYR [5mer-93] gave a Binding affinity (RU) of 79 RU. With KRLRK [5mer-113], the Binding affinity (RU) in the assay with acetylcholine receptor [2] came out at 79 RU. On to KVVCR [5mer-396], for which, in the assay with acetylcholine receptor [1], the Binding affinity (RU) stood at 53 RU. The same measure, in the same setting: with RWVCK [5mer-395] the figure was 50 RU; with RRILR [5mer-387], 52 RU. RWVSR [5mer-107] showed a Binding affinity (RU) with acetylcholine receptor [2] of 56 RU.

For the molecule RQIQK [5mer-91], in the assay with acetylcholine receptor [1], the Binding affinity (RU) stood at 55 RU. RWRSK [5mer-116] displayed a Binding affinity (RU) in the assay with acetylcholine receptor [2] of 64 RU. The same measure, in the same setting: with RGRSR [5mer-412] the figure was 81 RU. In the assay with acetylcholine receptor [1], KGVLK [5mer-85] had a Binding affinity (RU) of 74 RU. Same read-out and setting: next, RVVRR [5mer-84]: 67 RU. In turn, RSVYK [5mer-117] gave a Binding affinity (RU) in the assay with acetylcholine receptor [2] of 69 RU. The same measure, in the same setting: with RWLLR [5mer-115] the figure was 75 RU; with RWFLK [5mer-103], 62 RU. Still for that read-out and setting: next, KLLQR [5mer-106]: 78 RU. KWYCK [5mer-98] showed a Binding affinity (RU) with acetylcholine receptor [1] of 68 RU. Regarding RGRRK [5mer-95], in the assay with acetylcholine receptor [1], the Binding affinity (RU) is 68 RU. In turn, RGQQR [5mer-105] returned a Binding affinity (RU) with acetylcholine receptor [2] of 50 RU.

In the assay with acetylcholine receptor [2], RRLYK [5mer-403] returned a Binding affinity (RU) of 64 RU. On the same count and under the same terms, with KSYTK [5mer-405] the figure was 68 RU; with KVYLR [5mer-406], 84 RU. Molecule RRITK [5mer-397] came in with a Binding affinity (RU) with acetylcholine receptor [1] of 52 RU. RQIYK [5mer-407]: the Binding affinity (RU) with acetylcholine receptor [2] was 58 RU. With RRLCK [5mer-86], in the assay with acetylcholine receptor [1], the Binding affinity (RU) turned out to be 55 RU. The same measure, in the same setting: next, KGQCR [5mer-398]: 71 RU. Turning to RWRTR [5mer-418], the Binding affinity (RU) with acetylcholine receptor [2] was found to be 53 RU. As to RGFSK [5mer-102], in the assay with acetylcholine receptor [2], the Binding affinity (RU) came out at 82 RU. Same read-out and setting: with KWQLK [5mer-108] the figure was 77 RU. In the assay with acetylcholine receptor [2], KVFRK [5mer-408] had a Binding affinity (RU) of 74 RU.

With KWLQK [5mer-417], the Binding affinity (RU) with acetylcholine receptor [2] is 65 RU.

As to KRRRK [5mer-394], the Binding affinity (RU) with acetylcholine receptor [1] was 66 RU. Consider KGRLR [5mer-411], for which the Binding affinity (RU) in the assay with acetylcholine receptor [2] turned out to be 66 RU.

Consider KWIQR [5mer-399], for which the Binding affinity (RU) with acetylcholine receptor [2] stood at 62 RU. Still for that read-out and setting: next, KLYLR [5mer-416]: 67 RU; KQIYK [5mer-409]: 62 RU. For KRFCR [5mer-390], in the assay with acetylcholine receptor [1], the Binding affinity (RU) stood at 64 RU.

With RQITR [5mer-87], the Binding affinity (RU) in the assay with acetylcholine receptor [1] turned out to be 55 RU. On the same count and under the same terms, with RWQRK [5mer-383] the figure was 56 RU.

KRQLR [5mer-97] showed a Binding affinity (RU) in the assay with acetylcholine receptor [1] of 52 RU. On to KVRCK [5mer-414], for which the Binding affinity (RU) in the assay with acetylcholine receptor [2] came to 71 RU.

RWRCK [5mer-400] showed a Binding affinity (RU) with acetylcholine receptor [2] of 70 RU.

The values above are taken from patent US20250011363A1, “OPTIMIZED SHORTENED PEPTIDE THAT BINDS TO ACETYLCHOLINE RECEPTOR, AND USE THEREOF” (SKINMED CO., LTD., priority 2021, published 2025).
